Numbering of substitutions follows the chain as printed.
B1: COV2-3025 (antibody, V domains shown)
VH: EVQLVQSGPEVKKPGTSVKVSCKASGFTFMSSAVQWVRQARGQRLEWIGWIVIGSGNTNYAQKFQERVTITRDMSTSTAYMELSSLRSEDTAVYYCAAPYCSSISCNDGFDIWGQGTMVTVSS
VL: EIVLTQSPGTLSLSPGERVTLSCRASQSVSSSYLAWYQQKPGQAPRLLIYGASSRATGIPDRFSGSGSGTDFTLTISRLEPEDFAVYYCQHYGSSRGWTFGQGTKVEIK
B2: COV2-2094 (antibody, V domains shown)
VH: EVQLVESGGGVVRPGGSLRLSCAASGFIFDDYDMTWVRQAPGKGLEWVSGINWNGGSTGYADSVKGRFTISRDNAKNSLYLQMNSLRAEDTALYHCAVIMSPIPRYSGYDWAGDAFDIWGQGTMVTVSS
VL: SSELTQDPAVSVALGQTVRITCQGDSLRSYYASWYQQKPGQVPILVIYDKNNRPSGIPDRFSGSSSGNTASLTITGAQAEDEADYYCNSRDSSGNAVVFGGGTKLTVL
B3: COV2-2514 (antibody, V domains shown)
VH: B2 VH
VL: B2 VL
B4: COV2-2096 (antibody, V domains shown)
VH: QVQLVQSGAEVKKPGASVKVSCKASGYTFGSFDINWVRQATGQGLEWMGRMNSNSGNTAYAQKFQGRVTMTRDTSTNTAYMELSSLRSEDTAMYYCARMRSGWPTHGRPDDFWGRGTLVTVSS
VL: QSVLTQAPSASGTPGQRVTISCSGSNSNIGSYTINWYQQLPGTAPKLLIYGNDQRTSGVPDRFSGSKFGTSASLAISGLQSEDENNYYCAVWDDSLNGLVFGGGTKLTVL
B5: COV2-2391 (antibody, V domains shown)
VH: B4 VH
VL: B4 VL
B6: COV2-2952 (antibody, V domains shown)
VH: EVQLVESGGGLVQPGGSLRLSCAASGLTVRSNYMTWVRQTPGKGLEWVSVIYSGGSTFYADSVKGRFTISRDNSKNTVYLQMNSLRAEDTAVYYCARDLVTYGLDVWGQGTTVTVSS
VL: DIQLTQSPSFLSASVGDRVTITCRASQGISNYLAWYQQKPGTAPNLLIYAASTLQSGVPSRFSGSGSGTEFTLTISSLQPEDFATYYCQLLNSHPLTFGQGTRLEIK
B7: COV2-2165 (antibody, V domains shown)
VH: B6 VH
VL: B6 VL
B8: COV2-2838 (antibody, V domains shown)
VH: B1 VH with E1Q, V2M
VL: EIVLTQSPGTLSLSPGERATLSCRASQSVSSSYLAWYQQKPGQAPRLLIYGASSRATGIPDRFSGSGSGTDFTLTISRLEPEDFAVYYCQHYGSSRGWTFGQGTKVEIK
B9: COV2-2196 (antibody, V domains shown)
VH: B1 VH with E1Q, V2M
VL: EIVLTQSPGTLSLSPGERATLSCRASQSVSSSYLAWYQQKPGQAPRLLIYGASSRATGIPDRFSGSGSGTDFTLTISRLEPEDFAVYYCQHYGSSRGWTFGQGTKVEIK
notes: also called mAb COV2-2196

What follows are binders tested against T1, SARS-CoV-2 RBD (Table A) (SARS-CoV-2, UniProt P0DTC2 319-541) (assay: ELISA, purified IgG).
T1 construct: domain: RBD

| Binder | ELISA OD 450 nm [OD 450 nm] |
| --- | --- |
| B1 | 3.7 |
| B2 | 4.3 |
| B3 | 3.56 |

The binders below were run against T2, SARS-CoV-2 NTD (Table A) (SARS-CoV-2, UniProt P0DTC2 14-305) (assay: ELISA, purified IgG).
T2 construct: domain: NTD

| Binder | ELISA OD 450 nm [OD 450 nm] |
| --- | --- |
| B4 | 0.12 |
| B5 | 0.1 |
| B6 | 0.1 |
| B7 | 0.05 |
| B8 | 0.12 |
| B9 | 0.05 |
| B2 | 0.1 |
| B3 | 0.09 |

Each binder was assayed against SARS-CoV Spike trimer (Table A) (SARS-CoV, UniProt P59594 14-1190) (assay: ELISA, purified IgG).

| Binder | ELISA OD 450 nm [OD 450 nm] |
| --- | --- |
| B1 | 0.21 |
| B2 | 4.1 |
| B3 | 3.6 |

These binders were tested against T3, SARS-CoV-2 spike (S) glycoprotein on virus (neutralization assays) (SARS-CoV-2, UniProt P0DTC2 14-1273) (assay: cell-based or functional assay).

| Binder | Nano-luciferase virus reduction test, SARS-CoV-2, IC50 [ng/mL] | SARS-CoV-2 focus reduction test, IC50 [ng/mL] |
| --- | --- | --- |
| B4 | < 200 | 290 |
| B5 |  | 45 |
| B6 |  | 89 |
| B7 | < 400 | 185 |
| B8 |  | 14 |
| B9 | < 100 | 29 |
| B1 |  | 31 |
| B2 | < 50 | 151 |
| B3 |  | 84 |

Target: T3, SARS-CoV-2 spike (S) glycoprotein on …
Test: cell-based or functional assay
Remark: another data set of the same source

| Binder | Neutralization IC50, ng/mL (FRNT, authentic SARS-CoV-2) [ng/mL] |
| --- | --- |
| B4 | 59 |
| B7 | 332 |
| B9 | 15 |
| B1 | 37 |
| B2 | 154 |

The binders below were run against T4, SARS-CoV-2 S receptor-binding domain (SRBD), residues 319-541 (SARS-CoV-2, UniProt P0DTC2 319-541) (assay: ELISA on coated antigen).
T4 construct: range 319-541

| Binder | EC50 [ng/mL] |
| --- | --- |
| B1 | 1.1 |
| B2 | 1.4 |
